Assay results as given in patent US20120213771A1 (published 2012).
Numbering of substitutions follows the chain as printed.

T1: recombinant human CD27/TNFRSF7/Fc chimera (R&D Systems Catalog No. 382-CD) (UniProt P26842 20-191)
T1 chain: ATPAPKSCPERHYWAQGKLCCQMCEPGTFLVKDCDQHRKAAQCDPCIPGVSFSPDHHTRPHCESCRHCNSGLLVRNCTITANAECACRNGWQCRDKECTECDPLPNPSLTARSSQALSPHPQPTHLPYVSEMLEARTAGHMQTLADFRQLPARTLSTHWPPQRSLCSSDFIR

B1: 1G5-1B9 (antibody, V domains shown)
VH: QVQLVESGGGVVQPGRSLRLSCAASGFSFSSYGMHWVRQAPGKGLEWVALLWYDGSHKDFADSVKGRFTISRDNSKNTLDLQMNSLRAEDTAVYYCAREGLAVPGHWYFDLWGRGTLVTVSS
VL: AIQLTQSPSSLSASVGDRVTITCRASQGISSALAWYQQKPGKAPKLLIYDASSLESGVPSRFSGSGSGTDFTLTISSLQPEDFATYYCQQFNTYPRTFGQGTKVEIK
B2: 3H8-1B11 (antibody, V domains shown)
VH: EVQLVESGGGLVQPGGSLRLSCAASGFTFSSYWMAWVRQAPGKGLEWLGNIKQDGSEKYYVDSVKGRFTISRDNAKNSLYLQMNSLRAEDTAVYYCVRELGMDWYFDLWGRGTLVTVSS
VL: EIVLTQSPATLSLSPGERATLSCRASQSVDSYLAWYQQKPGQAPRLLIYDASNRATGIPARFSGSGSGTDFTLTISNLEPEDFAVYYCQQRSNWPPTFGQGTKVEIK
B3: 2C2-1A10 (antibody, V domains shown)
VH: QVQLVESGGGVVQPGRSLRLSCAASGFTFSSYDIHWVRQAPGKGLEWVAVIWNDGSNKYYADSVKGRFTISRDNSTNSLFLQMNSLRAEDTAVYYCVGGTADLEHWDQGTLVTVSS
VL: DIQMTQSPSSLSASVGDRVTITCRASQGISSWLAWYQQKPEKAPKSLIYAASSLQSGVPSRFSGSGSGTDFTLTISSLQPEDFATYYCQQYNSYPLTFGGGTKVEIK
B4: 3A10-G10 (antibody, V domains shown)
VH: QVQLVESGGGVVQPGRSLRLSCAASGFTFSHYGMHWVRQAPGKGPEWVAIIWYDGSNKYYADSVKGRFTISRDNSKNTLDLQMNSLRAEDTAVYYCARDGWTTMVRGLNVFDIWGQGTMVTVSS
VL: B3 VL with G28D, L96P, G100Q, K103R, V104L
B5: 1H8-B4 (antibody, V domains shown)
VH: QVQLVESGGGVVQPGRSLRLSCAASGFTFNIYDMHWVRQAPGKGLEWVAVIWYDGSNQYYADSVKGRFTISRDNSKNTLYLQMNILRAEDTAVYYCARGTHWGYFDYWGQGTLVTVSS
VL: B3 VL with S53N, L96R, G100Q
B6: 2G9-1D11 (antibody, V domains shown)
VH: B3 VH with F29L, Y32H, G98R
VL: B3 VL
B7: 1F5-1H5 (antibody, V domains shown)
VH: QVQLVESGGGVVQPGRSLRLSCAASGFTFSSYDMHWVRQAPGKGLEWVAVIWYDGSNKYYADSVKGRFTISRDNSKNTLYLQMNSLRAEDTAVYYCARGSGNWGFFDYWGQGTLVTVSS
VL: B3 VL with S31R, S93T, L96R, G100Q
B8: 3H12-1E12 (antibody, V domains shown)
VH: B7 VH with A24T, R87G, A88D
VL: B3 VL with S31R, S93T, L96R, G100Q

Legend:
[1] = molecular target: T1, recombinant human CD27/TNFRSF7/Fc …; assay: Biacore SPR
[2] = molecular target: T1, recombinant human CD27/TNFRSF7/Fc …; assay: Biacore SPR

Binder | Ka [1] | Kd [2]
B1 | 2.55e+09 M⁻¹ | 0.402 nM
B2 | 1.81e+10 M⁻¹ | 0.0556 nM
B3 | 1.2e+10 M⁻¹ | 0.0841 nM
B4 | 4.97e+09 M⁻¹ | 0.202 nM
B5 | 6.39e+09 M⁻¹ | 0.158 nM
B6 | 6.6e+11 M⁻¹ | 0.00153 nM
B7 | 5.37e+09 M⁻¹ | 0.186 nM
B8 | 2.8e+09 M⁻¹ | 0.358 nM
